These results are taken from patent publication US20020052476A1 (Human Genome Sciences, published 2002).

Data set [1] has as its target T1, recombinant human cystatin E (mature CysE secreted from baculovirus-infected Sf9 cells).
T1 chain: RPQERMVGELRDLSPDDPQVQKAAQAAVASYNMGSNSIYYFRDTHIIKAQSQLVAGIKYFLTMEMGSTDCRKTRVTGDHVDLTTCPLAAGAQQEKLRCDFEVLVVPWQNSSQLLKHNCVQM

The target of data set [2] is T2, m-CysE (mutant CysE: amino acids 29-143 of SEQ ID NO: 2 plus a 27 amino acid C-terminal fusion product encoded by the pA2 vector).
T2 chain: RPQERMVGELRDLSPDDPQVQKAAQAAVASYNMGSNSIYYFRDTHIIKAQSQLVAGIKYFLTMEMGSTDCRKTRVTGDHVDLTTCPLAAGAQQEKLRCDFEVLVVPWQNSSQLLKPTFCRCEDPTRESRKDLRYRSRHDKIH

Data set [3] concerns the target T3, papain (EC 3.4.22.2; from Sigma) (UniProt P00784 134-345).
T3 construct: Commercial enzyme
T3 sequence (looked up): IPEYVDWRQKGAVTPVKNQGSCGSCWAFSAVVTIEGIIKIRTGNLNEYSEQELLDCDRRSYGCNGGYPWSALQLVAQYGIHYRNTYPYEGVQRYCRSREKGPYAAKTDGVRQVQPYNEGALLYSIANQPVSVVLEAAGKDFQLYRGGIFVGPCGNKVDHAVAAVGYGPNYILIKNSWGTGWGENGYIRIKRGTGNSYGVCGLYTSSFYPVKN
The data set can be described thus: titration of papain activity (Bz-Arg-pNA hydrolysis) with varying inhibitor concentrations; linear titration curves. The text has this: To test the function of CysE and m-CysE as protease inhibitors their effect on papain hydrolysis of casein was investigated according to the method of Example 10. […] The m-CysE mutant performed similarly (data not shown).
The methods used for active site titration of papain, titration of the molar enzyme inhibitory concentration in cystatin E preparations, and for determination of equilibrium constants for dissociation (Ki) of complexes between cystatin E and cysteine peptidases are described in detail in Hall et al., Biochem. J., 291:123-29 (1993) and Abrahamson, Methods Enzymol., 244:685-700 (1994), both of which are hereby incorporated herein by reference. The enzymes used for equilibrium assays were papain (EC 3.4.22.2; from Sigma, St Louis, Mo.) and cathepsin B (EC 3.4.22.1; from Calbiochem, La Jolla, Calif.). […] Steady state velocities were measured and Ki values were calculated according to Henderson, Biochem J., 127:321-333 (1972), incorporated herein by reference. Corrections for substrate competition were made using Km values of 150=B5M for cathepsins B (Barrett and Kirschke, Methods Enzymol., 80:535-561 (1981) and 60=B5M for papain (Hall et al., Biochem. J., 291:123-29 (1992)), both of which are hereby incorporated herein by reference.

B1: papain (EC 3.4.22.2; from Sigma) (protein)
chain: IPEYVDWRQKGAVTPVKNQGSCGSCWAFSAVVTIEGIIKIRTGNLNEYSEQELLDCDRRSYGCNGGYPWSALQLVAQYGIHYRNTYPYEGVQRYCRSREKGPYAAKTDGVRQVQPYNEGALLYSIANQPVSVVLEAAGKDFQLYRGGIFVGPCGNKVDHAVAAVGYGPNYILIKNSWGTGWGENGYIRIKRGTGNSYGVCGLYTSSFYPVKN
For the molecule B1, the “papain hydrolysis of Bz-Arg-pNA in 10 minute assays” value in data set [1] is “At mM concentrations, the recombinant CysE completely inhibited papain hydrolysis of Bz-Arg-pNA in 10 minute assays”. Besides, the “papain hydrolysis of casein” value in data set [1] is “Both CysE and m-CysE showed a dose- and time-dependent inhibition of papain activity (data not shown)”; in data set [2] it was “Both CysE and m-CysE showed a dose- and time-dependent inhibition of papain activity (data not shown)”.

B2: recombinant human cystatin E (mature CysE secreted from baculovirus-infected Sf9 cells) (other)
chain: RPQERMVGELRDLSPDDPQVQKAAQAAVASYNMGSNSIYYFRDTHIIKAQSQLVAGIKYFLTMEMGSTDCRKTRVTGDHVDLTTCPLAAGAQQEKLRCDFEVLVVPWQNSSQLLKHNCVQM
modifications: partly N-glycosylated (protein band doublet, a glycosylated and an unglycosylated form)
notes: Full-length cDNA was expressed in Sf9 cells; also called recombinant CysE
For the molecule B2, the Ki in data set [3] is under 10 nM.

A word on the Ki: it is a measure of affinity in units of concentration, obtained from inhibition or displacement. Low readings indicate tighter binding, high ones weaker binding.
